Measured values from IntAct's records for PubMed 26290419.

B1: Kinesin-like protein KIF24 (Homo sapiens), Q5T7B8 (parent)
chain: MASWLYECLCEAELAQYYSHFTALGLQKIDELAKITMKDYSKLGVHDMNDRKRLFQLIKIIKIMQEEDKAVSIPERHLQTSSLRIKSQELRSGPRRQLNFDSPADNKDRNASNDGFEMCSLSDFSANEQKSTYLKVLEHMLPDDSQYHTKTGILNATAGDSYVQTEISTSLFSPNYLSAILGDCDIPIIQRISHVSGYNYGIPHSCIRQNTSEKQNPWTEMEKIRVCVRKRPLGMREVRRGEINIITVEDKETLLVHEKKEAVDLTQYILQHVFYFDEVFGEACTNQDVYMKTTHPLIQHIFNGGNATCFAYGQTGAGKTYTMIGTHENPGLYALAAKDIFRQLEVSQPRKHLFVWISFYEIYCGQLYDLLNRRKRLFAREDSKHMVQIVGLQELQVDSVELLLEVILKGSKERSTGATGVNADSSRSHAVIQIQIKDSAKRTFGRISFIDLAGSERAADARDSDRQTKMEGAEINQSLLALKECIRALDQEHTHTPFRQSKLTQVLKDSFIGNAKTCMIANISPSHVATEHTLNTLRYADRVKELKKGIKCCTSVTSRNRTSGNSSPKRIQSSPGALSEDKCSPKKVKLGFQQSLTVAAPGSTRGKVHPLTSHPPNIPFTSAPKVSGKRGGSRGSPSQEWVIHASPVKGTVRSGHVAKKKPEESAPLCSEKNRMGNKTVLGWESRASGPGEGLVRGKLSTKCKKVQTVQPVQKQLVSRVELSFGNAHHRAEYSQDSQRGTPARPASEAWTNIPPHQKEREEHLRFYHQQFQQPPLLQQKLKYQPLKRSLRQYRPPEGQLTNETPPLFHSYSENHDGAQVEELDDSDFSEDSFSHISSQRATKQRNTLENSEDSFFLHQTWGQGPEKQVAERQQSLFSSPRTGDKKDLTKSWVDSRDPINHRRAALDHSCSPSKGPVDWSRENSTSSGPSPRDSLAEKPYCSQVDFIYRQERGGGSSFDLRKDASQSEVSGENEGNLPSPEEDGFTISLSHVAVPGSPDQRDTVTTPLREVSADGPIQVTSTVKNGHAVPGEDPRGQLGTHAEYASGLMSPLTMSLLENPDNEGSPPSEQLVQDGATHSLVAESTGGPVVSHTVPSGDQEAALPVSSATRHLWLSSSPPDNKPGGDLPALSPSPIRQHPADKLPSREADLGEACQSRETVLFSHEHMGSEQYDADAEETGLDGSWGFPGKPFTTIHMGVPHSGPTLTPRTGSSDVADQLWAQERKHPTRLGWQEFGLSTDPIKLPCNSENVTWLKPRPISRCLARPSSPLVPSCSPKTAGTLRQPTLEQAQQVVIRAHQEQLDEMAELGFKEETLMSQLASNDFEDFVTQLDEIMVLKSKCIQSLRSQLQLYLTCHGPTAAPEGTVPS
partner: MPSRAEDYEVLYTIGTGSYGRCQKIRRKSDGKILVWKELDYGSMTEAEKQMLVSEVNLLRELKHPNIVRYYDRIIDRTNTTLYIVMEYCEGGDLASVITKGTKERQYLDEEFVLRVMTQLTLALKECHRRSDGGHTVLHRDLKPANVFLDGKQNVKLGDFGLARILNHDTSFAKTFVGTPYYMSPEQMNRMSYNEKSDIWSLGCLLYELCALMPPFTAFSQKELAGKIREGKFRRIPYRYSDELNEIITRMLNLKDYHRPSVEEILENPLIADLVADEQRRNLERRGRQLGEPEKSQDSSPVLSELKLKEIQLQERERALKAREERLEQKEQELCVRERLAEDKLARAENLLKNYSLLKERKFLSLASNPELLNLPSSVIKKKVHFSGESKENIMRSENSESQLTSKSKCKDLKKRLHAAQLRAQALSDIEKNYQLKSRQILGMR

Variants of: B1
Settings: with nek2_human NEK2, P51955

| Variant | effect of a mutation on the interaction |
| --- | --- |
| T621A;S622A | decreasing interaction |
